# Test results reported in the nanobody polyreactivity screen of Harvey et al. (2022).
# Experiment: yeast display, Sf9 membrane polyspecificity reagent, FACS + sequencing; frameworks hold sequencing errors
# In short: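 Sorting gates, low and high (top ~1%), were placed on anti-HA fluorescence to track expression and on streptavidin fluorescence to track reagent binding. A clone's polyreactivity label is taken from the gate it came out of. The reagent was 10% biotinylated, detergent-solubilized Sf9 membrane, applied for 1 hour at 4 °C to galactose-induced yeast display cells.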
row,Sequence,polyreactivity (PSR sort gate)
1,QVQLVESGGGLVQAGGSLRLSCAASGRSFTPYARGWYRQAPGKERELVAAISTIGGTTYADSVKGRFTISRDNAKNTVYLQRNSLKPEDTAVYYCAAERPPYPGNGRDYWGQGTQVTVSS,high polyreactivity
2,QVQLVESGGGLVQAGGSLRLSCAASGRSFWRNAMGWYRQAPGRERELVAAMSRGGSTNYADSVKGRFTMSRDNAKKTVYLPMNSLKPEDTAVYYCAARYYYRYNYWRQGTQVTVSS,high polyreactivity
3,QVQLVESGGGLVQAGGSLRLSCAASGRSFYRNAMGWYRQAPGKERELVAAITSSGASTYYADSVKGRFTISRDNAKNTVYLQMNSLKPEDTAVYYCAAKYVYSVGNYRYDYWGQGTQVTVSS,low polyreactivity
4,QVQLVESGGGLVQAGGSLRLSCAASGRSIRIYAMGWYRQAPGKERELVAAIRWSGGTTYYADSVKGRFTISRDNAKNTVYLQMNSLKPEDTAVYYCAADSTNRYDYWGQGTQVTVSS,high polyreactivity
5,QVQLVESGGGLVQAGGSLRLSCAASGRSIYRNAMGWYRQAPGKERELVAAISGRGGGTYYADSVKGRFTLSRDNAKNTVYLQMNSVKPEETAVYYCAAERKNKYDYWGQGTQVTVSS,high polyreactivity
6,QVQLVESGGGLVQAGGSLRLSCAASGRTALRNAMGWYRQAPGKEREFVADIRWSGGSTYYADSVKGRFTISRDKAKNTVYLQMNSQKPEDTAVYYCAAGYVRYPYWYYYWGQGTQVTVSS,high polyreactivity
7,QVQLVESGGGLVQAGGSLRLSCAASGRTCGKYAMGWYRQAPGKERELVATISRSGGSTYYADSVKGRFTISRDTAKYTVYLQMNSLKPEDTAVYYCNAVTSRYIWPPVLDRYHYWGQGTQVTLSS,high polyreactivity
8,QVQLVESGGGLVQAGGSLRLSCAASGRTDNTNAMGWYRQAPGKERELVAAITRSGDSTYYADSVKGRFTISRDNAKNTVYLQMNSLKPEDTAVYYCAAYSRTLYPDRYYWGQGTQVTVSS,high polyreactivity
9,QVQLVESGGGLVQAGGSLRLSCAASGRTDRTNAMGWYRQAPGKERELVAAISTGGGITNYADSVKGRITISRDNAKNTVYLQMNSLKPEDTAVYYCNADIYTWFQIGGYQYDYWGQGTHVTVSS,low polyreactivity
10,QVQLVESGGGLVQAGGSLRLSCAASGRTFAAYDMGWYRQAPGKERELVAAITSGGSTNYADSVKGRFTISRDNAKNTVYLQMNSLKPEDTAVYYCNARFRKWPQARYGVRYYYWGQGTQVTVSS,high polyreactivity
11,QVQLVESGGGLVQAGGSLRLSCAASGRTFADFTMGWYRQAPGKERELVAAISFSGGSTYYADSVKGRFTISRDNAKNTVYLHMNSLKPEDTAVYYCAAGHKRRAPRYYDWGQGTQVTVSS,high polyreactivity
12,QVQLVESGGGLVQAGGSLRLSCAASGRTFADYVMGWYRQAPGKERELVAAITSSGGSTYYADSVKGRFTISRDNAKNTVYLQMNSLKPEDTAVYYCAAQQSPSVDYWGQGTQVTVSS,low polyreactivity
13,QVQLVESGGGLVQAGGSLRLSCAASGRTFAGYVMGWYRQAPGKERELVAAISTSGGSTYYADSVKGRFTISRDNAKNTVYLQMNSLKPEDTAVYYCNVYLKHRYYNQMDYWGQGTQVTVSS,high polyreactivity
14,QVQLVESGGGLVQAGGSLRLSCAASGRTFALNVMGWYRQAPGKERELVAAISRSGGSTYYADSVTGRFTISRDNAKNTVYFQMNSLKPEDTAVYYGAAATHYQSYNRRDYWGEGTQVTVSS,high polyreactivity
15,QVQLVESGGGLVQAGGSLRLSCAASGRTFALYALGRYRQAPGKERELVASISWRGGSTYYADSVKGRFTISRDNANNTVYVQMNRLKPEDTAVSYCAADTGSYGPLIYRLEYWGQGTQVNVSS,low polyreactivity
16,QVQLVESGGGLVQAGGSLRLSCAASGRTFALYTMGWYRQAPGKVRELVAAINWSGTSTYYADSVKGRFTISRDNAKNTVYLQMNSLKPEDTAVYYCNRDPRKYGKLDYWGQGTQVTVSS,low polyreactivity

row,Sequence,polyreactivity (PSR sort gate)
1,QVQLVESGGGLVQAGGSLRLSCAASGRTFANNAMGSYRPAPGKAREWVASISITTSTYYADSVKGRFTISRDNAKITVYLQLNSLKPEDTPVYYCAAYYFIHAGPWEFDYWGQGTQVTVSS,low polyreactivity
2,QVQLVESGGGLVQAGGSLRLSCAASGRTFANYAMGWYRQAPGKDRELVAAIYSGGNTYYEDSVKGRFTISRDNAKNTVFLQMNRLKPEDTAVYYCNSPWYYRYQRNEYGYWGQGTQVTVSS,high polyreactivity
3,QVQLVESGGGLVQAGGSLRLSCAASGRTFAPYAMGWYRQAPGKERELVAAISWSGGSTYYADSVKGRFTISRDNAKNSVYLQMNSLKPEDTAVYYCAVVVDYDADRYWGYDYWGQGTQVTVSS,high polyreactivity
4,QVQLVESGGGLVQAGGSLRLSCAASGRTFAQYAMGWYRQAPGKERELVAAISRSGGSTFYADSVKGRFTISRDNAKNTVYLQMNSLKPEDTAVYYCAAYNRQASLDYWGQGTQVTVSS,high polyreactivity
5,QVQLVESGGGLVQAGGSLRLSCAASGRTFARNAMGWYRHAPGKERELVAAISGSGGITYYADSVKGRFTISRDNAKNTVYLQMNSLKPEDTAVYYCNAGNNVVVDYDYWGQGTQVTVSS,low polyreactivity
6,QVQLVESGGGLVQAGGSLRLSCAASGRTFARYAMGWYRPAPGKERELVAAISSSGVSSYYADSVKGRFTISRDNAKNTVYLQMNSLKPDDTAVYYCVTYRNWWYDYWGQGTQVTVSS,high polyreactivity
7,QVQLVESGGGLVQAGGSLRLSCAASGRTFARYAMGWYRQAPGKERELVAAITRGGSTKYADSVKGRFTISRDNAKNTVYLQMNSLKPEDTAVYYCNKVIVQYTLDRGYWGQGTQVTVSS,high polyreactivity
8,QVQLVESGGGLVQAGGSLRLSCAASGRTFARYAMGWYRQAPGKERELVAVISRTGSTYYADSVKGRFTISRDNAKNTVYLQMNSLKPEDTAVYYCATVYYYLAYGWSYSDMDYWGQGTQVTVSS,high polyreactivity
9,QVQLVESGGGLVQAGGSLRLSCAASGRTFARYTMGWYSQAPVKERELVASITRGGSTYYADSVKGRFTISSDNAKNTVYLQMYSLKPEDTAVYYCNAVYIVGGDWGQGTQVTVSS,high polyreactivity
10,QVQLVESGGGLVQAGGSLRLSCAASGRTFARYVMGWYRPAPGKERELVASISNSGGSTYYADSVKGRFTISRDNAKNTVYLQMNSQKPEDTAVSYCARRYYYWGQGTQVTVSS,high polyreactivity
11,QVQLVESGGGLVQAGGSLRLSCAASGRTFASNAMGWYRQAPGKERELVAAISYSGGRTYYADSVKGRFTISRDNAKNTVYLQMNSLKPEDTAVYYCAKVGPVYKYDYWGLGTQVTVSS,high polyreactivity
12,QVQLVESGGGLVQAGGSLRLSCAASGRTFASYAMGWYRQAPGKERELVASIRYSGGSTHYADSVKGRFTISRDNAKNPVYLQMNSLKPEDTAVYYCNARPKFRTYNYWGQGTQVTVSS,high polyreactivity
13,QVQLVESGGGLVQAGGSLRLSCAASGRTFASYVMGWYRQAPGKERELVAAIDWHTGSTYYADSVKGRFTISRDNAKNTVYLQMNSLKPEDTAVYYCAAVYFLYPEGYWQTLYEYYYWGQGTQVTVSS,low polyreactivity
14,QVQLVESGGGLVQAGGSLRLSCAASGRTFATYAMGWYRQAPGKERELVAAISSGGSTYYADSVKGRFTISRDNAKNTVYLQMNSLKPEDTAVYYCAVYVDYYGYGYWGQGTQVTVSS,high polyreactivity
15,QVQLVESGGGLVQAGGSLRLSCAASGRTFAVNAMGWYRQAPGKESELVAAISQRAGRTYYADSVKGRFTISRDNAKNTVYLQMNSLKPEDTAVYYCNVVGFRSRVGSRGYWGQGTQVTVSS,high polyreactivity
16,QVQLVESGGGLVQAGGSLRLSCAASGRTFAVYAMGWYRQAPGKERELVAAISGRGGNTYYADSVKGRFTISRDNAKNTVYFQMNSLKPEDTAVYYCAAKAYQSEYGYWGQGTQVTVSS,high polyreactivity
